Assay results from US20240076392A1, “ANTI-CD123 BINDING MOLECULES AND USES THEREOF” (IGM Biosciences, Inc., priority 2021, published 2024).

T1: recombinant human CD123 protein (CD123)-His (Homo sapiens, UniProt P26951)
T1 construct: purchased Acrobio (Acro Biosystems) ILA-H52H6
T1 sequence (P26951 19-378): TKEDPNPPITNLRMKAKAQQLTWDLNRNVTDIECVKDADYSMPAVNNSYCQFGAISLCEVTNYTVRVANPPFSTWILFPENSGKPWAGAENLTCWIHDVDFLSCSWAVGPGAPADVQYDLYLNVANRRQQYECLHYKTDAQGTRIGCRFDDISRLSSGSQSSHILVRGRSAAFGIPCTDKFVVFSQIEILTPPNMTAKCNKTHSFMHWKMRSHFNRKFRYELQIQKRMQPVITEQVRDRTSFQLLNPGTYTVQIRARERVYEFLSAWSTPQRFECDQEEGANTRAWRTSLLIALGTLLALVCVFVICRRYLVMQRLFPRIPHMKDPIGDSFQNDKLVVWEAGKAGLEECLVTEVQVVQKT

T2: human CD123 on CHO cells (Homo sapiens, UniProt P26951)
T2 construct: expressed in transfected cells; host or cells: CHO cells
T2 sequence (P26951 19-378): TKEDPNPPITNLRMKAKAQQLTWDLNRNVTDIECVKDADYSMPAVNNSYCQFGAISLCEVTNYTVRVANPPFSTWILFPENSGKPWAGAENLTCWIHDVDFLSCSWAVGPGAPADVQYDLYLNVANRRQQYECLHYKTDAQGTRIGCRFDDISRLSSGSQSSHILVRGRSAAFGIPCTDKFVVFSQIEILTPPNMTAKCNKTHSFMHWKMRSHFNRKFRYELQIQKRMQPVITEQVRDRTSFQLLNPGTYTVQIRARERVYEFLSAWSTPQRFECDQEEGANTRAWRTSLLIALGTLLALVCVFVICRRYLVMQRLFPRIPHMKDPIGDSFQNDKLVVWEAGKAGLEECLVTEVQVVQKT


What was measured:
[1] = molecular target: T1, recombinant human CD123 protein (CD123)-His; assay: Biolayer interferometry (Octet) affinity measurement of IgG antibodies; type: binding; details: IgG format
Procedure: The binding affinities of parental 32716 IgG and humanized variants with recombinant human CD123 protein (CD123)-His Acrobio #ILA-H52H6) were determined by BLI on an Octet-384 (Sartorius/Fortebio, NY, USA) using Anti-penta His biosensors (Sartorius). PBST (1×PBS+1% BSA+0.05% Tween-20) buffer was used as Antibody/CD123 dilution and sensor hydration buffer. The experiment followed a five-step sequential assay at 24° C. First, biosensors were hydrated for 10 minutes. Samples and buffer were applied in 384-well plate. After initial baseline for 60 s, sensors were loaded with 7 nM hu IL-3R alpha (CD123)-His Acrobio #ILA-H52H6. The biosensors were dipped into PBST for 20 s to reach baseline, then incubated for 420 s with 2-fold serial diluted anti-CD123 antibodies starting at 10 nM for association, followed by 900 s in PBST for dissociation. Results were analyzed by ForteBio Data Analysis software 9.0 using 1:1 global fit model.

human CD123 on CHO cells = molecular target: T2, human CD123 on CHO cells; assay: Flow cytometry binding of IgG antibodies to CD123 expressing CHO cells; details: 4-parameter logistic model; for Max binding intensity (MFI): flow cytometry
Procedure: To assess the ability of IgG antibodies to bind CD123 on CHO cells expressing the human CD123, a binding assay was performed. CHO cells expressing human CD123 were detached from flask using trypsin. Cells (1×105) were pipetted into wells in a round bottom 96 well plate, washed with FACS Stain Buffer (BD Pharmigen Catalog #554656) and pre-incubated with Fc Block (BD, #564220) for 10 minutes at room temperature followed by incubation at 4° C. with serial dilutions of 32716 or h32716 IgG antibodies for 30 minutes. Cells were washed twice and stained with a mouse anti human kappa antibody conjugated with Alexa647 (Southern Biotech, clone SB81a). Cells were analyzed by flow cytometry. Mean fluorescence intensity (MFI) values were analyzed with GraphPad Prism using a 4-parameter logistic model. All humanized IgG antibodies of 32716 anti-CD123 bound with similar affinities and intensities.

Molecule | affinity compared to the original murine IgG antibody [1] | HillSlope (human CD123 on CHO cells) | Max binding intensity (MFI) (human CD123 on CHO cells)
h32716-3-1 IgG: humanized 32716 anti-CD123 IgG, VH SEQ ID NO: 78, VL SEQ ID NO: 79 (antibody, V domains shown) VH: QVQLVQSGAEVKKPGSSVKVSCKASGYIFTNYGMNWVKQAPGQGFKWMGWINTYTGESTYSADFKGRFTFTLDESTSTAYMELSSLRSEDTAVYYCARSGGYDPMDYWGQGTLVTVSS VL: DIVMTQSPDSLAVSLGERATINCRASESVDNYGNTFMHWYQQKPGQPPKLLIYRASNLESGVPDRFSGSGSGTDFTLTISSLQAEDVAVYYCQQSNEDPPTFGQGTRLEIK | slightly better affinity | 1.9 | 940000
h32716-1-1 IgG: humanized 32716 anti-CD123 IgG, VH SEQ ID NO: 76, VL SEQ ID NO: 79 (antibody, V domains shown) VH: QVQLVQSGAEVKKPGSSVKVSCKASGYIFTNYGMNWVRQAPGQGLEWMGWINTYTGESTYSADFKGRVTITADESTSTAYMELSSLRSEDTAVYYCARSGGYDPMDYWGQGTLVTVSS VL: DIVMTQSPDSLAVSLGERATINCRASESVDNYGNTFMHWYQQKPGQPPKLLIYRASNLESGVPDRFSGSGSGTDFTLTISSLQAEDVAVYYCQQSNEDPPTFGQGTRLEIK |  | 2.0 | 950000
h32716-4-2 IgG: humanized 32716 anti-CD123 IgG, VH SEQ ID NO: 80, VL SEQ ID NO: 83 (antibody, V domains shown) VH: QVQLVQSGPELKKPGASVKVSCKASGYIFTNYGMNWVRQAPGQGLEWMGWINTYTGESTYSADFKGRFVFSLDTSVSTAYLQISSLKAEDTAVYYCARSGGYDPMDYWGQGTLVTVSS VL: DIQMTQSPSSLSASVGDRVTITCRASESVDNYGNTFMHWYQQKPGKAPKLLIYRASNLESGVPSRFSGSGSGTDFTFTISSLQPEDIATYYCQQSNEDPPTFGQGTKVEIK |  | 2.4 | 980000
h32716-5-2 IgG: humanized 32716 anti-CD123 IgG, VH SEQ ID NO: 81, VL SEQ ID NO: 83 (antibody, V domains shown) VH: QVQLVQSGPELKKPGASVKVSCKASGYIFTNYGMNWVKQAPGQGLEWMGWINTYTGESTYSADFKGRFVFSLDTSVSTAYLQISSLKAEDTAVYYCARSGGYDPMDYWGQGTLVTVSS VL: DIQMTQSPSSLSASVGDRVTITCRASESVDNYGNTFMHWYQQKPGKAPKLLIYRASNLESGVPSRFSGSGSGTDFTFTISSLQPEDIATYYCQQSNEDPPTFGQGTKVEIK |  | 2.2 | 1100000

Now from value to molecule:

affinity compared to the original murine IgG antibody [1] | HillSlope (human CD123 on CHO cells) | Max binding intensity (MFI) (human CD123 on CHO cells) | Molecule
 | 1.7 | 930000 | h32716-2-1 IgG: humanized 32716 anti-CD123 IgG, VH SEQ ID NO: 77, VL SEQ ID NO: 79 (antibody, V domains shown) VH: QVQLVQSGAEVKKPGSSVKVSCKASGYIFTNYGMNWVKQAPGQGLEWMGWINTYTGESTYSADFKGRFTFTLDESTSTAYMELSSLRSEDTAVYYCARSGGYDPMDYWGQGTLVTVSS VL: DIVMTQSPDSLAVSLGERATINCRASESVDNYGNTFMHWYQQKPGQPPKLLIYRASNLESGVPDRFSGSGSGTDFTLTISSLQAEDVAVYYCQQSNEDPPTFGQGTRLEIK
 | 1.9 | 1000000 | h32716-6-2 IgG: humanized 32716 anti-CD123 IgG, VH SEQ ID NO: 82, VL SEQ ID NO: 83 (antibody, V domains shown) VH: QVQLVQSGPELKKPGASVKVSCKASGYIFTNYGMNWVKQAPGQGFKWMGWINTYTGESTYSADFKGRFVFSLDTSVSTAYLQISSLKAEDTAVYYCARSGGYDPMDYWGQGTLVTVSS VL: DIQMTQSPSSLSASVGDRVTITCRASESVDNYGNTFMHWYQQKPGKAPKLLIYRASNLESGVPSRFSGSGSGTDFTFTISSLQPEDIATYYCQQSNEDPPTFGQGTKVEIK
 | 2.2 | 910000 | 32716 IgG: parental (mouse) anti-CD123 antibody 32716 VH/VL (SEQ ID NO: 74/75) cloned into human IgG format (antibody, V domains shown, human IgG constant regions) VH: QIQLVQSGPELKKPGETVKISCKASGYIFTNYGMNWVKQAPGKSFKWMGWINTYTGESTYSADFKGRFAFSLETSASTAYLHINDLKNEDTATYFCARSGGYDPMDYWGQGTSVTVSS VL: DIVLTQSPASLAVSLGQRATISCRASESVDNYGNTFMHWYQQKPGQPPKLLIYRASNLESGIPARFSGSGSRTDFTLTINPVEADDVATYYCQQSNEDPPTFGAGTKLELK
